Each block holds one molecule with its values, some of them ahead of it.
Experiments:
[1] = target: major royal jelly protein 3 (MRJP-3) (Apis mellifera) (UniProt Q17060); experiment: SEC; MRJP-3 concentrated to 100 uM, 16/100 Superdex 200, eluted at 0.5 ml/min in RJ buffer (pH 4.0), no RNA; column calibrated with mass standards; monomer to higher-order oligomer
[2] = target: major royal jelly protein 3 (MRJP-3) (Apis mellifera) (UniProt Q17060); experiment: MST; increasing unlabelled MRJP-3 added to fluorescently labelled MRJP-3 monomer; Monolith NT.115, 25 °C, RJ buffer with 0.01% Tween 20; apparent Kd of self-association; signal stable from approximately 40 uM added MRJP-3
MRJP-3 (jelly-purified) [3] = target: T1, MRJP-3 (jelly-purified) (Apis mellifera, UniProt Q17060 21-544); experiment: EMSA; 42.8 uM protein; MST: RJ buffer (composition not in material) + 0.01% Tween 20, 25 C; EMSA: room temperature 0.5-3 h, 0.8% agarose, 1xTAE; conditions: protein: native
T1 sequence: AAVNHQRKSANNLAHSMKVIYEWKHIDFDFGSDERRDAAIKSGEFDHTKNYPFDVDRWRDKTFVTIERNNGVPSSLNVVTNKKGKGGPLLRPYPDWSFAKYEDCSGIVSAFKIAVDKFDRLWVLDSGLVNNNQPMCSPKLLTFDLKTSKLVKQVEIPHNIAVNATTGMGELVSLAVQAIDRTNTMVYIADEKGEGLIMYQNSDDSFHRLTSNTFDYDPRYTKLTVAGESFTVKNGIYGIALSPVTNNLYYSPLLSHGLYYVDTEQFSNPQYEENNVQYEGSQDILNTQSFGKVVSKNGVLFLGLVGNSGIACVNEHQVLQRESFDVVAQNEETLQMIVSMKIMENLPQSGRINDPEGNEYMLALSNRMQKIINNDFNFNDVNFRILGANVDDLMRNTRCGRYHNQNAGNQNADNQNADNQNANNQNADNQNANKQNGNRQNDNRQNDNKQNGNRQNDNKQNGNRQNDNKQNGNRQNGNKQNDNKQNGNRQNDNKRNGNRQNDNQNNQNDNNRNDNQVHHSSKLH

MRJP-3 (jelly-purified) [4] = target: T1, MRJP-3 (jelly-purified); experiment: EMSA; 42.8 uM protein, 0.27 uM RNA; MST: RJ buffer (composition not in material) + 0.01% Tween 20, 25 C; EMSA: room temperature 0.5-3 h, 0.8% agarose, 1xTAE; conditions: protein: native
MRJP-3 (jelly-purified) [5] = target: T1, MRJP-3 (jelly-purified); experiment: MST; first of three binding phases; MST: RJ buffer (composition not in material) + 0.01% Tween 20, 25 C; EMSA: room temperature 0.5-3 h, 0.8% agarose, 1xTAE; conditions: protein: native; label: Alexa Fluor 488 (Ulysis) for MST
MRJP-3 (jelly-purified) [6] = target: T1, MRJP-3 (jelly-purified); experiment: MST; third of three binding phases; MST: RJ buffer (composition not in material) + 0.01% Tween 20, 25 C; EMSA: room temperature 0.5-3 h, 0.8% agarose, 1xTAE; conditions: protein: native; label: Alexa Fluor 488 (Ulysis) for MST
MRJP-3 (jelly-purified) [7] = target: T1, MRJP-3 (jelly-purified); experiment: MST; second of three binding phases; MST: RJ buffer (composition not in material) + 0.01% Tween 20, 25 C; EMSA: room temperature 0.5-3 h, 0.8% agarose, 1xTAE; conditions: protein: native; label: Alexa Fluor 488 (Ulysis) for MST

stoichiometry N (monomer units) [1]: 20
Kd [2]: 3500 nM
Molecule: major royal jelly protein 3 (MRJP-3) (from UniProt Q17060 21-544) (natural protein)

B1: 18 nt ssRNA (ssRNA)
RNA: UGUGUUUAUAGCGGAUUU
binding result (MRJP-3 (jelly-purified) [3]): binds

B2: 50 nt ssRNA (ssRNA)
RNA: ACGCUUCUAACUUCAAGAUUUUACACAAUCAUAUGGGCUCACUGUUACUA
binding result (MRJP-3 (jelly-purified) [4]): binds

B3: 22 nt ssRNA (ssRNA)
RNA: UCAUAUGGGCUCACUGUUACUA
Kd (MRJP-3 (jelly-purified) [5]): 4 nM
Kd (MRJP-3 (jelly-purified) [6]): 25000 nM
Kd (MRJP-3 (jelly-purified) [7]): 300 nM

— PMC6509358, “A Secreted RNA Binding Protein Forms RNA-Stabilizing Granules in the Honeybee Royal Jelly”
